The record followed here is paper PMC11161652, “ASXLs binding to the PHD2/3 fingers of MLL4 provides a mechanism for the recruitment of BAP1 to active enhancers” (Nature Communications, 2024).

One may read the Kd as the free concentration of one partner at which half of the binding sites on the other are occupied at equilibrium, for simple one-to-one binding. A higher Kd goes with weaker binding.

Positions count from the first letter of the chain named.

One assay deals with MLL4_(PHD2/3) E292K (human, UniProt O14686 227-324, E292K).
Another assay concerns the target T1, MLL4_(PHD2/3) D285K (human, UniProt O14686 227-324, D285K).
T1 construct: human MLL4 (KMT2D), aa 227-324; source: E. coli BL21-CodonPlus, purified as WT
T1 sequence (looked up): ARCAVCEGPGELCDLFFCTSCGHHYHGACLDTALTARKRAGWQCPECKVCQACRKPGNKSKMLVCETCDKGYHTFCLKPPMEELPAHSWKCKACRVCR
Kind of assay: not stated; fluorescence spectroscopy or NMR: the legends of Fig. 3c and Fig. 4b say that values marked (a) are from NMR and the others from fluorescence; the text does not tell which for these pairs. The settings on record: both partners purified.

In assay [1] the target is T2, MLL3_(PHD2/3) D372K (human, UniProt Q8NEZ4 342-439, D372K).
T2 construct: human MLL3 (KMT2C), aa 342-439; source: E. coli BL21-CodonPlus, purified as WT
T2 sequence (looked up): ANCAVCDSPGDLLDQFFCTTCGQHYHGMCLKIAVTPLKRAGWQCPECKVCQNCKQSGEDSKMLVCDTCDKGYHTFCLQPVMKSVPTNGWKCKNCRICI
The assay is described as above. The settings on record: both partners purified.

In assay [2] the target is T3, MLL3_(PHD2/3) D400K (human, UniProt Q8NEZ4 342-439, D400K).
T3 construct: human MLL3 (KMT2C), aa 342-439; source: E. coli BL21-CodonPlus, purified as WT
T3 sequence (looked up): T2 sequence (looked up) with K31D, D59K
The assay is described as above. The settings on record: both partners purified.

The target in assay [3] is T4, MLL3_(PHD2/3) D400K (human, UniProt Q8NEZ4 342-439, D400K).
T4 sequence: T2 sequence (looked up) with K31D, D59K

The target of assay [4] is T5, MLL3_(PHD2/3) D372K (human, UniProt Q8NEZ4 342-439, D372K).
T5 sequence: T2 sequence (looked up)

B1: ASXL2 peptide (residues 650-670 of ASXL2) (peptide, UniProt Q76L83 650-670, looked up)
peptide: NRTGARTLADIKAKAQLVKAQ
notes: also called ASXL2 (aa 650-670); MBH of ASXL2; source: synthetic peptide (SynPeptide)
Turning to B1, the Kd was 10 µM with MLL4_(PHD2/3) E292K, ~1700 µM in the assay with MLL4_(PHD2/3) D285K, 540 µM in the assay with MLL3_(PHD2/3) D400K [3] and 55 µM in the assay with MLL3_(PHD2/3) D372K [4]. Further, the “fold reduction in binding against wild type MLL3_(PHD2/3)” value was ~40 fold with MLL3_(PHD2/3) D372K [1] and 400 fold in the assay with MLL3_(PHD2/3) D400K [2].
